According to US20240010735A1 (EISAI R AND D MANAGEMENT, published 2024):

How the values were obtained:
[1] = biological target: T1, human EphB2 extracellular region-SEAP-His protein (human, UniProt P29323 19-543); test: ELISA: SEAP-His proteins (1 nM) captured on anti-6-His antibody, antibody A 10 µg/mL with human IgG 100 µg/mL, HRP anti-mouse IgG, OD450 as % of human EphA4-SEAP-His
T1 construct: extracellular domain; also called Eph receptor extracellular region-SEAP-His protein; not shown: secretory alkaline phosphatase (SEAP); histidine tag
T1 sequence (looked up): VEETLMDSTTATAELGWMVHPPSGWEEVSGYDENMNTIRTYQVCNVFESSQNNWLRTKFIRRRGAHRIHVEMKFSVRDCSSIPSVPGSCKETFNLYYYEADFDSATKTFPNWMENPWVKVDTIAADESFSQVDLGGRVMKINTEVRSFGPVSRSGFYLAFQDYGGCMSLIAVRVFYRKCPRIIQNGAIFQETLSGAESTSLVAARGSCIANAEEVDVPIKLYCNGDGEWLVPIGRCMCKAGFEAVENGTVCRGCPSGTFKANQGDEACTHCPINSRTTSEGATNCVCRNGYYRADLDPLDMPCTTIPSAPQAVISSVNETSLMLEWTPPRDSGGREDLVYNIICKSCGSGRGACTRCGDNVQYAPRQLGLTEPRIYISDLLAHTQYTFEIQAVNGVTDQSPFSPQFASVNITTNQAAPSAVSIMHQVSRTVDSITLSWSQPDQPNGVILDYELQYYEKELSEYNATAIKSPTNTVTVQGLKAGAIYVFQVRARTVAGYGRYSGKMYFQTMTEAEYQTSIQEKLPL

[2] = biological target: T2, human EphA10 extracellular region-SEAP-His protein (human, UniProt Q5JZY3 34-565); test: as above
T2 construct: extracellular domain; also called Eph receptor extracellular region-SEAP-His protein; not shown: secretory alkaline phosphatase (SEAP); histidine tag
T2 sequence (looked up): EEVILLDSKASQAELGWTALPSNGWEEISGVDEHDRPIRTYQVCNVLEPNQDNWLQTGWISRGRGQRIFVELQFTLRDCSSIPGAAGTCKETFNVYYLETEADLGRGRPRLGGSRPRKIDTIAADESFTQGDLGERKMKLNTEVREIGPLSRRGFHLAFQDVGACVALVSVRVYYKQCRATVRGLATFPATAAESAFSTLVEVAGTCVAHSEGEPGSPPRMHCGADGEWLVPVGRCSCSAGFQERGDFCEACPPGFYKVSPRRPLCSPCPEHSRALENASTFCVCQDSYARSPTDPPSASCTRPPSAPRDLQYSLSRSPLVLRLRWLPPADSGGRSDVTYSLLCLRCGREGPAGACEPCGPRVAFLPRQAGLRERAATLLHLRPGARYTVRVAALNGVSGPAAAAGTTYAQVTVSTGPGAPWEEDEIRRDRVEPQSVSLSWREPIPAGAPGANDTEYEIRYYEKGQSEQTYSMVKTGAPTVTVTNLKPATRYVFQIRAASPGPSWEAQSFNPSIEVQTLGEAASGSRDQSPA

[3] = biological target: T3, human EphB3 extracellular region-SEAP-His protein (human, UniProt P54753 34-559); test: as above
T3 construct: extracellular domain; also called Eph receptor extracellular region-SEAP-His protein; not shown: secretory alkaline phosphatase (SEAP); histidine tag
T3 sequence (looked up): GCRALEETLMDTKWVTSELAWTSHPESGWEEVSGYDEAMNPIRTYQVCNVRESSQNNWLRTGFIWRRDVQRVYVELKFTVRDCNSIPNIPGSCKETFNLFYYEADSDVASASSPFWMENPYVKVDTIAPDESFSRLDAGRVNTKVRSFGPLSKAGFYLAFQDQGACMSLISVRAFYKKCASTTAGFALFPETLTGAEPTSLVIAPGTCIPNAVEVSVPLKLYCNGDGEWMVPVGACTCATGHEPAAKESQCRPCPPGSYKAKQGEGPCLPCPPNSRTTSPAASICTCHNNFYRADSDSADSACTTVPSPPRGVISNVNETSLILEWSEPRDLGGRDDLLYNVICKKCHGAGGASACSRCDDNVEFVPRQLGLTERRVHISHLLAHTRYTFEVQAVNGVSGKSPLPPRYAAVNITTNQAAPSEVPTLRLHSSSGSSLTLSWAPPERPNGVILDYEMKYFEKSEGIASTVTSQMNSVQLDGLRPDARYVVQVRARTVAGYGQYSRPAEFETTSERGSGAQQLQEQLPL

[4] = biological target: T1, human EphB2 extracellular …; test: ELISA: SEAP-His proteins (1 nM) captured on anti-6-His antibody, antibody B 10 µg/mL with human IgG 100 µg/mL, HRP anti-human IgG, OD450 as % of human EphA4-SEAP-His
[5] = biological target: T2, human EphA10 extracellular …; test: as above
[6] = biological target: T3, human EphB3 extracellular …; test: as above

Measured: binding result

B1: mouse anti-EphA4 monoclonal antibody (antibody A) (antibody, mouse IgG1, kappa, V domains shown)
VH: QVQLKQSGPSLVQPSQSLSITCTVSGFSLTRYGVHWVRQSPGKGLEWLGVIWRGGSTDYNAAFMSRLSITKDNSKSQVFFKMNSLQADDTAIYYCAKESLFGVYYDYGYYSMDYWGQGTSVTVSS
VL: DIQMTQSPSSLSASLGERVSLTCRASQEISGYLSWLQQKPDGTIKRLIYAASTLDSGVPKRFSGSRSGSDYSLTISSLESEDFADYYCLQYASYPLTFGAGTKLELKR
notes: purified from hybridoma supernatant
no binding (tested: 10 µg/mL): [1] | [2] | [3]

B2: humanized anti-EphA4 monoclonal antibody (antibody B) (antibody, human IgG2, V domains shown)
VH: QVQLVESGGGVVQPGRSLRLSCAVSGFSLTRFGVHWVRQAPGKGLEWVAVIWRGGSTDYNAAFMSRLTISKDNSKNTVYLQMNSLRAEDTAVYYCAKESLFGVYYDYGYYSMDYWGQGTTVTVSS
VL: DIQMTQSPSSLSASVGDRVTITCRASQEISGYLSWLQQKPGKAPKRLIYAASTLDSGVPSRFSGSRSGTEYTLTISSLQPEDFATYYCLQYASYPLTFGGGTKVEIKR
notes: expressed in Expi293F cells; also called humanized antibody of antibody A; HK2-42 / L1-8
no binding (tested: 10 µg/mL): [4] | [5] | [6]
